Results from patent WO2019109974A1.

Target: hPD-L1(ECD)-mFc (human)
Assay: ELISA, hPD-L1-mFc coated

hPD-L1(ECD)-mFc (human), sequence (chain, as listed by the source limits assumed): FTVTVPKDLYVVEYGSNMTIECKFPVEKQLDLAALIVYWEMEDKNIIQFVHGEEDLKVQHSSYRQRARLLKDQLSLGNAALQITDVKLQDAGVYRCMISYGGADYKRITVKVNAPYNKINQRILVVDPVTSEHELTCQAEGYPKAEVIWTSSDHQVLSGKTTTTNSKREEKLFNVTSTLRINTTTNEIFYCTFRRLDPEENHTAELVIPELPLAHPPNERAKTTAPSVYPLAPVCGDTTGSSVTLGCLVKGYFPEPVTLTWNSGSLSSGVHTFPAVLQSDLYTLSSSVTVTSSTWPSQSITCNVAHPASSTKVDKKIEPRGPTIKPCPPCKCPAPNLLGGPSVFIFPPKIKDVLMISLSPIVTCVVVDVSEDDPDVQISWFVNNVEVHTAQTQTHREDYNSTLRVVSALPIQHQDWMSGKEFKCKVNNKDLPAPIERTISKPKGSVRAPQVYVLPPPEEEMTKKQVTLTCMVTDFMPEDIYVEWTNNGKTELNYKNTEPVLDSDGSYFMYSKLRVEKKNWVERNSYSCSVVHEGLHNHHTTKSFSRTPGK

- EC50: 0.142 µg/mL
Substance: Tecentriq (antibody)
